Results from patent US20240343800A1 (Merck KGaA, published 2024).

Key:
[1] = target: T1, human ROR2 (on recombinant cell lines) (human, UniProt Q01974 34-943); test: flow cytometry on recombinant cell lines; confirmed by standard ELISA
T1 construct: whole, on cells

[2] = target: T2, human Fc-Frizzled-Kringle fusion protein (human Fc fused to the Frizzled and Kringle domains of human ROR1) (human); test: yeast surface display sorting
T2 construct: Entry is printed with a leader; also called huFc-frz-KNG
T2 sequence (chain, as listed by the source limits assumed): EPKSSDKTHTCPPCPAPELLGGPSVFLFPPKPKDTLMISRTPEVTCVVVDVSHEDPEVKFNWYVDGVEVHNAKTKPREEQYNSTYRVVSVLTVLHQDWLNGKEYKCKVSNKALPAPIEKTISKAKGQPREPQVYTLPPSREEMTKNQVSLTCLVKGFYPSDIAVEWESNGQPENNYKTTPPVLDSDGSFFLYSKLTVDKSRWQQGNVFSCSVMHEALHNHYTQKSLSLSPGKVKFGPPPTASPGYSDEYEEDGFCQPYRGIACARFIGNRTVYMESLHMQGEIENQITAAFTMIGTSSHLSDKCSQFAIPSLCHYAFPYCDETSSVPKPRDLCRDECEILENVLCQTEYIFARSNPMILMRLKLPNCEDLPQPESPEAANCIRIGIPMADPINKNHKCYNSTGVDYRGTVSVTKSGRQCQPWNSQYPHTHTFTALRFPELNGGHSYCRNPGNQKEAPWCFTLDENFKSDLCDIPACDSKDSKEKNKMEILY

B1: Clone 82H02 (from a Fab yeast surface display library of immunized transgenic rats) (Fab, V domains shown)
VH: EVQLLESGGGLVQPGGSLRLSCAASGFTFTSYAMSWVRQAPGKGLEWVSTISGSGGGTYYTDSVKGRFTISRDNSKNTLYLQMNSLRAEDTAVYYCAQGSSIFDYWGQGTLVTVSS
VL: EIVLTQSPATLSLSPGERATLSCRASQSVSSYLAWYQQKPGQAPRLLIYDASNRATGIPARFSGSGSGTDFTLTISSLEPEDFAVYYCQQRSNWPPCTFGQGTRLEIK
binding result [1]: no binding | binding result [2]: no binding
